Data from PMC7102964.
pKd: −log10 of the molar value.

Tests used:
Assay in all cases: BLI
Details in all cases: none stated (T7 transcript); 3' end periodate-oxidised for biotin hydrazide; BLI (Octet RED96), biotin-tRNA on streptavidin tips: 50 mM Tris-HCl pH 8.0, 150 mM NaCl, 0.002% Tween-20, 25 C; 1:1 model
[1] = tested on: OSGEPL1-K203E (Homo sapiens)
[2] = tested on: OSGEPL1-K203A (Homo sapiens)
[3] = tested on: OSGEPL1-K299Q (Homo sapiens)
[4] = tested on: OSGEPL1-K203R (Homo sapiens)
[5] = tested on: OSGEPL1 (mature, delta-MTS) (Homo sapiens)
[6] = tested on: OSGEPL1-K203Q (Homo sapiens)

Substance	pKd [1]	pKd [2]	pKd [3]	pKd [4]	pKd [5]	pKd [6]
hmtRNAThr	5.07	4.54	5.17	5.44	5.17	4.85
hmtRNAThr-U34C	–	–	–	–	5.26	–
hmtRNAThr-U34G	–	–	–	–	5.39	–
